Results as given in patent US9844563B2, “Compositions, kits, and methods to induce acquired cytoresistance using stress protein inducers” (FRED HUTCHINSON CANCER RESEARCH CENTER, priority 2014, dated 2017).
Values joined by “and” are separate entries in the source; they are usually repeats but may differ in a detail not shown here. Equal values may be shown once.

Columns and labels:
[1] = tested on: HO-1 mRNA; test: Renal cortical HO-1 mRNA (RT-PCR) after IV myoglobin, SnPP or both; assay type: in vivo, mice
Description: (§1) The Glycerol Model of AKI. This is a widely used model of rhabdomyolysis-induced AKI that has been employed worldwide for 50 years. The model was used to test whether prophylactic interventions confer protection against AKI. Basically, the protocol is as follows: Male CD-1 mice (35-45 grams), obtained from Charles River Laboratories, Wilmington, Mass. were studied. Mice were maintained under standard vivarium conditions and generally housed for 1-3 weeks prior to study. The mice were placed in a cylindrical restraining cage, and then were given a tail vein injection of the test substances (see below) or test substance vehicle. The mice were then returned to their cages. Eighteen hours (hrs) later, the mice were briefly anesthetized by isoflurane inhalation, and given an intramuscular injection of hypertonic (50%) glycerol in a dose of 9 ml/Kg body weight. The dose is divided in two, with half injected into the muscle of each of the hind limbs. The mice were then returned to their cages. Eighteen hrs later, the mice were deeply anesthetized with pentobarbital (50-100 mg/Kg), the abdominal cavity was opened through a midline abdominal incision, a blood sample was obtained from the abdominal vena cava and the kidneys were resected. A kidney cross section was obtained and fixed in formalin for subsequent histologic analysis. The terminal blood samples were analyzed for BUN and creatinine, using commercially available assay kits. The remaining kidney tissue was subjected to cortical dissection, and the cortical tissues were then extracted for protein and RNA. The protein samples were saved for analysis of HO-1 levels, and the RNA samples were subjected to RT-PCR to quantify HO-1 mRNA as well as levels of other stress gene mRNAs (e.g. NGAL, haptoglobin, hemopexin, hepicidin).
(§2) Myoglobin+SnPP: To 5 mg of dry myoglobin was added 0.9 ml of PBS+0.1 ml of a stock SnPP solution (50 umole/ml). The resulting final concentrations were 5 mg/ml myoglobin+5 umoles/ml of SnPP. The tail vein was injected with 200 ul of this solution, which equals 1 mg myoglobin+1 umole SnPP. […]
(§3) Four hr post myoglobin vs myoglobin+SnPP vs SnPP alone experiments. To confirm that the myoglobin+SnPP has a synergistic effect in inducing HO-1 mRNA and HO-1 protein levels, each of the above combinations have been administered alone via tail vein injection. Four hrs later, the mice were sacrificed as noted above and the kidneys were harvested for assessment of HO-1 mRNA and protein levels. For additional information regarding methods, see Zager et al., Am J Physiol Renal Physiol. 2014 Jul. 30. Pii.

[2] = tested on: HO-1; test: Renal cortical HO-1 protein (ELISA) after IV myoglobin, SnPP or both; assay type: in vivo, mice; settings: 1 mg Myoglobin, 1 μmole SnPP
Description: as §1, §2
as §3, with “Four hrs later, the mice were sacrificed as noted above and the kidneys were harvested for assessment of HO-1 mRNA and protein levels.” left out

[3] = tested on: Haptoglobin; test: Haptoglobin protein expression after SQ myoglobin with or without PEG; assay type: in vivo, mice; settings: 4 hour time point after SQ injection
Description: Myoglobin+PEG: To a stock solution of 20 mg/ml Mgb in PBS was added 100 mg/ml of PEG-6000; […]. This was administered as a subcutaneous injection in the dorsal neck (250 ul total injection). For combined Mgb/PEG+SnPP, SnPP was added to the above in a concentration of 3 mg/ml.

[4] = set-up: species or system mice; settings: mouse, in vivo, iv
[5] = tested on: HK-2 cells; test: HK-2 cell injury by MTT assay; assay type: cell-based; settings: 10 mg/mL, 18 hr incubation, compared to control incubated cells
Description: HK-2 cells (a proximal tubule cell line derived from normal human kidney) were incubated in keratinocyte serum free medium either under normal (control) conditions or in the presence of 10 mg/mL horse skeletal muscle myoglobin or nitrited myoglobin (produced by equimolar Na nitrite addition to 10 mg/ml myoglobin). After 18 hr incubations, the severity of cell injury (% cell death) was assessed by MTT assay. Myoglobin induced 40% cell death (40% decrease in MTT cell uptake), compared to control incubated cells. Nitrite binding to myoglobin reduced cell death by 75%. Thus, nitrite binding is able to reduce myoglobin's cytotoxic effects.

B1: myoglobin (protein, listed as Homo Sapiens)
chain: MGLSDGEWQLVLNVWGKVEADIPGHGQEVLIRLFKGHPETLEKFDKFKHLKSEDEMKASEDLKKHGATVLTALGGILKKKGHHEAEIKPLAQSHATKHKIPVKYLEFISECIIQVLQSKHPGDFGADAQGAMNKALELFRKDMASNYKELGFQG
notes: Lyophilized horse skeletal muscle myoglobin (Sigma Chemicals) used as the test agent
- HO-1 mRNA induction (HO-1/GAPDH mRNA), Average ([1]; 4 hrs post IV injection, average): 3.93 HO-1/GAPDH mRNA
- HO-1 mRNA induction (HO-1/GAPDH mRNA), individual mice ([1]; 4 hrs post IV injection, single animals): 7.78 HO-1/GAPDH mRNA and 2.93 HO-1/GAPDH mRNA and 2.58 HO-1/GAPDH mRNA and 2.41 HO-1/GAPDH mRNA
- HO-1 mRNA induction overnight post injection, Average ([1]; Ovnt (roughly 18 hrs) IV, 1 mg Myoglobin, 1 μmole SnPP, average): 0.58 HO-1/GAPDH mRNA
- HO-1 mRNA induction overnight post injection, individual subjects ([1]; Ovnt (roughly 18 hrs) IV, 1 mg Myoglobin, 1 μmole SnPP, single animals): 0.71 HO-1/GAPDH mRNA and 0.53 HO-1/GAPDH mRNA and 0.51 HO-1/GAPDH mRNA
- HO-1 Protein Expression (by ELISA), Average ([2]; Cortex, 4 hr IV, average): 45.4 ng HO-1/mg protein
- HO-1 Protein Expression (by ELISA), individual mice ([2]; Cortex, 4 hr IV, single animals): 36.0 ng HO-1/mg protein and 40.7 ng HO-1/mg protein and 40.2 ng HO-1/mg protein and 64.7 ng HO-1/mg protein
- HO-1 protein induction overnight post injection, Average ([2]; Ovnt (roughly 18 hrs) IV, average, in ng/mg protein): 36.7
- HO-1 protein induction overnight post injection, individual subjects ([2]; Ovnt (roughly 18 hrs) IV, single animals, in ng/mg protein): 50.6 and 34.9 and 24.6
- Haptoglobin Protein Expression [3]: 32.7 ± 6.3 ng/mg protein
- Plasma LDH, Average [4]: 4.47 Absorbance U LDH/ml
- cell death (decrease in MTT cell uptake) [5]: 40%
